“Also recorded” adds a separate entry of the source.
Columns and labels:
Dda-K38A/dT20 = target: T1, Dda-K38A/dT20 (Enterobacteria phage T4, UniProt P32270, K38A); type: binding, bacteriophage T4; conditions: SPR analysis 1, peptides up to 100 μM, 25°C
T1 construct: made in house
Protocol: These experiments were conducted at 25°C using a Biacore 3000 optical biosensor (Cytiva). […] The chip was primed in chelating buffer (10 mM HEPES pH 7.4, 150 mM NaCl, 50 μM EDTA, 0.005% Tween20) and was preconditioned at 10 μl/min with three 60 s injections of wash buffer (10 mM HEPES pH 8.3, 150 mM NaCl, 350 mM EDTA, 0.05% Tween20) and one 60 s injection of chelating buffer before being charged with a 60 s injection of 500 μM NiCl2 in chelating buffer. […] Any remaining active sites were blocked by Tris molecules in the binding analysis buffer (20 mM Tris-acetate pH 8.0, 150 mM NaCl, 10 mM magnesium acetate, 3 mM potassium glutamate, 1 mM TCEP, 0.05% Tween20, 10% glycerol). One flow cell on the chip was charged with Ni^2+ and activated with EDC/NHS without adding protein to be used as a reference cell. gp32 C-terminal peptides were prepared in binding analysis buffer as a 4-fold dilution series at maximum concentration 100 μM for screening and were injected at a flow rate of 75 μl/min. […] The data were processed, double-referenced and analyzed using the software package Scrubber2 (version 2.0c, BioLogic Software). The equilibrium dissociation constants (KD) were determined using steady-state analysis, specifically an equilibrium affinity analysis to fit the data to a 1:1 (Langmuir) interaction model.

[1] = target: T2, gp32 non-His-tagged;Dda-K38A (bacteriophage T4;bacteriophage T4, UniProt P03695;P32270 1-301;1-439, |K38A); assay: crystal structure; Zn2+; 4.98 A; 11 nt visible in one complex, 9 nt (Dda only) in the other; EMSA: 25 mM HEPES pH 7.5, 5 mM MgCl2, 0.1 mM EDTA, 2 mM 2-mercaptoethanol, 1 mg/ml BSA, 5% glycerol, 10 or 150 mM NaCl, room temperature (gel 4 C); gel filtration: 20 mM Tris-HCl pH 7.0, 200 mM NaCl (50 mM for crystallization), 0.5 mM EDTA, 5 mM 2-mercaptoethanol; conditions: protein: recombinant;recombinant; tags: none;6xHis (stated for SPR); copies: 1;1; single strand
T2 sequence 1: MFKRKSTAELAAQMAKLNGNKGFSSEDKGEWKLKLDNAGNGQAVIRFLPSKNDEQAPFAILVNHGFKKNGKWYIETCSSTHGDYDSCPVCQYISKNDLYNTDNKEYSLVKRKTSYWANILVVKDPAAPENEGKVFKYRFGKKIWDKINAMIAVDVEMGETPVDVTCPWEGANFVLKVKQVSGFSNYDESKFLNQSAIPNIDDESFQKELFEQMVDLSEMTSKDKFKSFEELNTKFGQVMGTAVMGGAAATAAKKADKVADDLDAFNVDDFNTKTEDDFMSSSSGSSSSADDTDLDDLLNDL
T2 sequence 2: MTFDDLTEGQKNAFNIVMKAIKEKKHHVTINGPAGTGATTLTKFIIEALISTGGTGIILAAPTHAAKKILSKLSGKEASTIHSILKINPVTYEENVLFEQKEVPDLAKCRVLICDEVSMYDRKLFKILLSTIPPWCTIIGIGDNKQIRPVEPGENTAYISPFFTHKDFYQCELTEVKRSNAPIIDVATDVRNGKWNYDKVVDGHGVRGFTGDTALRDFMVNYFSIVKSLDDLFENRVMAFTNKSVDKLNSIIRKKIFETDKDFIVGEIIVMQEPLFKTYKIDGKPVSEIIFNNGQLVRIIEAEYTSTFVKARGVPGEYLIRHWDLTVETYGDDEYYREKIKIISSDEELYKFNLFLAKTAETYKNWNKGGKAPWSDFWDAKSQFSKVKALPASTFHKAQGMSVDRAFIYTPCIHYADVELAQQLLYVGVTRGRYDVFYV

gp32 His-tagged;Dda-K38A [2] = target: T3, gp32 His-tagged;Dda-K38A (bacteriophage T4;bacteriophage T4, UniProt P03695;P32270 1-301;1-439, |K38A); assay: crystal structure; Zn2+; 6 A crystals, Zn SAD; EMSA: 25 mM HEPES pH 7.5, 5 mM MgCl2, 0.1 mM EDTA, 2 mM 2-mercaptoethanol, 1 mg/ml BSA, 5% glycerol, 10 or 150 mM NaCl, room temperature (gel 4 C); gel filtration: 20 mM Tris-HCl pH 7.0, 200 mM NaCl (50 mM for crystallization), 0.5 mM EDTA, 5 mM 2-mercaptoethanol; conditions: protein: recombinant;recombinant; tags: N-terminal 6xHis;6xHis (stated for SPR); copies: 1;1; single strand
T3 sequence 1: T2 sequence 1
T3 sequence 2: T2 sequence 2

[3] = target: T4, gp32 C-terminal peptide 248-270;Dda-K38A (bacteriophage T4;bacteriophage T4, UniProt P03695;P32270 248-270;1-439, |K38A); assay: crystal structure; 3.53 A; peptide contacts Dda; EMSA: 25 mM HEPES pH 7.5, 5 mM MgCl2, 0.1 mM EDTA, 2 mM 2-mercaptoethanol, 1 mg/ml BSA, 5% glycerol, 10 or 150 mM NaCl, room temperature (gel 4 C); gel filtration: 20 mM Tris-HCl pH 7.0, 200 mM NaCl (50 mM for crystallization), 0.5 mM EDTA, 5 mM 2-mercaptoethanol; conditions: tags: ;6xHis (stated for SPR); copies: 1;1; single strand
T4 sequence 1: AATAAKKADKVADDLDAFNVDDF
T4 sequence 2: T2 sequence 2

gp32 His-tagged;Dda-K38A [4] = target: T3, gp32 His-tagged;Dda-K38A; assay: gel filtration, SDS-PAGE and agarose gel; 200 mM NaCl; EMSA: 25 mM HEPES pH 7.5, 5 mM MgCl2, 0.1 mM EDTA, 2 mM 2-mercaptoethanol, 1 mg/ml BSA, 5% glycerol, 10 or 150 mM NaCl, room temperature (gel 4 C); gel filtration: 20 mM Tris-HCl pH 7.0, 200 mM NaCl (50 mM for crystallization), 0.5 mM EDTA, 5 mM 2-mercaptoethanol; conditions: protein: recombinant;recombinant; tags: N-terminal 6xHis;6xHis (stated for SPR); copies: 1;1; single strand
gp32 His-tagged;Dda-K38A [5] = target: T3, gp32 His-tagged;Dda-K38A; assay: gel filtration; complex stably formed; EMSA: 25 mM HEPES pH 7.5, 5 mM MgCl2, 0.1 mM EDTA, 2 mM 2-mercaptoethanol, 1 mg/ml BSA, 5% glycerol, 10 or 150 mM NaCl, room temperature (gel 4 C); gel filtration: 20 mM Tris-HCl pH 7.0, 200 mM NaCl (50 mM for crystallization), 0.5 mM EDTA, 5 mM 2-mercaptoethanol; conditions: protein: recombinant;recombinant; tags: N-terminal 6xHis;6xHis (stated for SPR); copies: 1;1; single strand
gp32 His-tagged;Dda-K38A [6] = target: T3, gp32 His-tagged;Dda-K38A; assay: gel filtration; 50 mM NaCl; purified complex crystallized; EMSA: 25 mM HEPES pH 7.5, 5 mM MgCl2, 0.1 mM EDTA, 2 mM 2-mercaptoethanol, 1 mg/ml BSA, 5% glycerol, 10 or 150 mM NaCl, room temperature (gel 4 C); gel filtration: 20 mM Tris-HCl pH 7.0, 200 mM NaCl (50 mM for crystallization), 0.5 mM EDTA, 5 mM 2-mercaptoethanol; conditions: protein: recombinant;recombinant; tags: N-terminal 6xHis;6xHis (stated for SPR); copies: 1;1; single strand
[7] = tested on: Dda binding to ssDNA (5′F-T30); assay: Electrophoretic mobility shift assay of Dda binding to 5′F-T30 ssDNA with or without gp32; set-up: species or system bacteriophage T4; conditions: EMSA, 5 nM 5′F-T30, 100 nM gp32, 10 mM or 150 mM NaCl, 10 min room temperature; three independent sets, Hill fit
Protocol: Varying amounts of Dda were mixed with 5 nM 5′F-T30 with or without 100 nM gp32 in 25 mM HEPES, pH 7.5, 5 mM MgCl2, 0.1 mM EDTA, 2 mM β-mercaptoethanol, 1 mg/ml bovine serum albumin, 5% glycerol, 0.05% Orange G and either 10 mM NaCl or 150 mM NaCl. Samples were incubated at room temperature in the dark for 10 min before separating on a 6% 100:1 acrylamide:bisacrylamide gel at 4°C. Gels were imaged on an Amersham Typhoon RGB Imager (Cytiva) with excitation using a 488 nm laser and emission measured after a 525BP20 filter. Data were quantified using ImageQuant software (GE Healthcare) and fit to the Hill equation.
Figure S6. gp32 enhances the affinity of Dda for ssDNA. (A) Electrophoretic mobility shift assays (EMSAs) of 5 nM 5′-F-T30 with increasing concentrations of Dda at 10 mM NaCl and 150 mM NaCl. (B) EMSAs of 5 nM 5′-F-T30 with 100 nM gp32 and increasing concentrations of Dda at 10 mM NaCl and 150 mM NaCl. ( C) The fraction of Dda bound DNA from three independent sets of EMSAs is plotted (average and standard deviation) and fit to the Hill equation. (D) The average and standard deviation of the apparent K d for each condition are given.
(1 picture or pasted object on this page, not shown here)

wild-type Dda = assay: Dda-dependent DNA unwinding assay with gp32 variants (fluorescein-quenched replication fork substrate, no annealing trap); type: biochemical, bacteriophage T4; conditions: 375 nM gp32 variant, 25 nM wild-type Dda, 25 nM substrate, 2.5 mM ATP, triplicate experiments
Protocol: A partial duplex substrate mimicking a replication fork was prepared by mixing equimolar concentrations of the following oligonucleotides: loading strand - […]/36-FAM/, displaced strand - […], and leading strand - […] in 10 mM HEPES/1 mM EDTA. The sample was heated to 95°C for 5 min, followed by slowly cooling to room temperature. All concentrations are final, after mixing. ATP (2.5 mM), Mg(OAc)2 (5 mM) and gp32 (375 nM) in assay buffer (25 mM HEPES, pH 7.5, 10 mM KOAc, 0.1 mM EDTA, 2 mM β-mercaptoethanol, 1 mg/ml bovine serum albumin and 4 mM phosphoenol pyruvate) were mixed and added to wells in one row of a black 96-well plate. The reactions were initiated by adding 25 nM substrate, 25 nM wild-type Dda and 5 U/ml pyruvate kinase/lactate dehydrogenase in assay buffer with a multichannel pipette to the entire row simultaneously. Fluorescein fluorescence was measured 8 times per minute in a VICTOR Nivo Multimode Plate Reader (Perkin Elmer) at room temperature with excitation through a 480/30 nm bandpass filter and emission measured after a 530/30 nm bandpass filter.

240–253: synthetic peptide of gp32 C-terminus residues 240–253 (GTAVMGGAAATAAK)
Binding to Dda-K38A/dT20 (in words) (Dda-K38A/dT20): failed to bind; also recorded: showed no binding

TTTTTTTTTTTTTTTTT (ssDNA) [dT17]
binding result [1]: binds | binding result (gp32 His-tagged;Dda-K38A [2]): binds

TTTTTTTT (ssDNA) [dT8]
binding result [3]: binds

TTTTTTTTTTTTTTTTTTTT (ssDNA) [dT20]
binding result (gp32 His-tagged;Dda-K38A [4]): binds

TTTTTTTTTTTTTTTT (ssDNA) [dT16]
binding result (gp32 His-tagged;Dda-K38A [5]): binds

TTTTTTTTTTTTTTTTTT (ssDNA) [dT18]
binding result (gp32 His-tagged;Dda-K38A [6]): binds

B1: wild-type gp32: bacteriophage T4 single-stranded DNA-binding protein, full length, N-terminal 6xHis-tag (protein)
chain: T2 sequence 1
modifications: left off: 6xHis, N-terminal, kept
Effect of gp32 on Dda binding to ssDNA (in words) [7]: increases the affinity of Dda for the ssDNA; also recorded: reduces the fraction of ssDNA bound by Dda | Rate constant of product formation (single exponential fit) (wild-type Dda; 5 mM Mg(OAc)2, pH 7.5, room temperature, fluorescein fluorescence): 0.023 s⁻¹ | Amplitude of the product formation curve (fluorescence) (wild-type Dda; higher amplitude = more effective prevention of reannealing): 280 000
